Measurements from patent US20220283175A1 (ENCODIA, published 2022).
No end group written: not given here. *: point of attachment. Benzoyl(4-SO2NH2) = NS(=O)(=O)c1ccc(C(=O)*)cc1; M65 = not defined here; M67 = not defined here; M75 = not defined here; M76 = not defined here; M88 = not defined here

B1: (SAB)AAAAE (peptide)
peptide: {Benzoyl(4-SO2NH2)}-AAAAE-NH2
SMILES: C[C@H](NC(=O)c1ccc(S(N)(=O)=O)cc1)C(=O)N[C@@H](C)C(=O)N[C@@H](C)C(=O)N[C@@H](C)C(=O)N[C@@H](CCC(=O)O)C(N)=O
B2: (SAB)AFAAE (peptide)
peptide: {Benzoyl(4-SO2NH2)}-AFAAE-NH2
SMILES: C[C@H](NC(=O)c1ccc(S(N)(=O)=O)cc1)C(=O)N[C@@H](Cc1ccccc1)C(=O)N[C@@H](C)C(=O)N[C@@H](C)C(=O)N[C@@H](CCC(=O)O)C(N)=O
B3: (SAB)EAAAE (peptide)
peptide: {Benzoyl(4-SO2NH2)}-EAAAE-NH2
SMILES: C[C@H](NC(=O)[C@H](C)NC(=O)[C@H](CCC(=O)O)NC(=O)c1ccc(S(N)(=O)=O)cc1)C(=O)N[C@@H](C)C(=O)N[C@@H](CCC(=O)O)C(N)=O
B4: (SAB)FAAAE (peptide)
peptide: {Benzoyl(4-SO2NH2)}-FAAAE-NH2
SMILES: C[C@H](NC(=O)[C@H](C)NC(=O)[C@H](Cc1ccccc1)NC(=O)c1ccc(S(N)(=O)=O)cc1)C(=O)N[C@@H](C)C(=O)N[C@@H](CCC(=O)O)C(N)=O
B5: (SAB)HAAAE (peptide)
peptide: {Benzoyl(4-SO2NH2)}-HAAAE-NH2
SMILES: C[C@H](NC(=O)[C@H](C)NC(=O)[C@H](Cc1c[nH]cn1)NC(=O)c1ccc(S(N)(=O)=O)cc1)C(=O)N[C@@H](C)C(=O)N[C@@H](CCC(=O)O)C(N)=O
B6: (SAB)LAAAE (peptide)
peptide: {Benzoyl(4-SO2NH2)}-LAAAE-NH2
SMILES: CC(C)C[C@H](NC(=O)c1ccc(S(N)(=O)=O)cc1)C(=O)N[C@@H](C)C(=O)N[C@@H](C)C(=O)N[C@@H](C)C(=O)N[C@@H](CCC(=O)O)C(N)=O
B7: (SAB)SAAAE (peptide)
peptide: {Benzoyl(4-SO2NH2)}-SAAAE-NH2
SMILES: C[C@H](NC(=O)[C@H](C)NC(=O)[C@H](CO)NC(=O)c1ccc(S(N)(=O)=O)cc1)C(=O)N[C@@H](C)C(=O)N[C@@H](CCC(=O)O)C(N)=O

What was measured:
Experiment in all cases: cell-based or functional assay
[1] = molecular target: T1, wild-type human carbonic anhydrase II (hCAII) protein (human, UniProt P00918 4-259)
[2] = molecular target: T1, wild-type human carbonic anhydrase II …; remark: listed apart in the source
[3] = molecular target: T1, wild-type human carbonic anhydrase II …; remark: listed apart in the source

Binder | IC50 (µM), hCAII functional assay [1] [µM] | P2 dependence: fold difference of IC50 (SABA-AF against SABA-AA) [2] [fold] | NTM-AAEIR IC50 (µM), colorimetric IC50 assay [3] [µM]
B1 | 0.0484 |  | 
B2 | 0.183 | ~4 | 
B3 | 0.0993 |  | 
B4 | 0.045 |  | 
B5 | 0.148 |  | 
B6 | 0.0284 |  | 
B7 | 0.153 |  | 
M65-AAEIR (not fully specified; printed as M65-AAEIR; reading uncertain) [M65-AAEIR] |  |  | 0.515
M67-AAEIR (not fully specified; printed as M67-AAEIR; reading uncertain) [M67-AAEIR] |  |  | 0.073
M75-AAEIR (not fully specified; printed as M75-AAEIR; reading uncertain) [M75-AAEIR] |  |  | 0.067
M76-AAEIR (not fully specified; printed as M76-AAEIR; reading uncertain) [M76-AAEIR] |  |  | 0.077
M88-AAEIR (not fully specified; printed as M88-AAEIR; reading uncertain) [M88-AAEIR] |  |  | 0.095
